From the supplement of paper PMC10065799, “High-throughput profiling of sequence recognition by tyrosine kinases and SH2 domains using bacterial peptide display” (eLife, 2023)

How the values were obtained:
[1] = biological target: SHP2-C SH2; experiment: SH2 binding enrichment of the phosphorylated peptide, bacterial display (enrichment ratio); higher = better substrate or ligand; peptides without Tyr show the background
[2] = biological target: c-Src SH2; experiment: as above
[3] = biological target: Grb2 SH2 (UniProt P62993); experiment: as above
[4] = biological target: MERTK (UniProt Q12866); experiment: phosphorylation enrichment, bacterial display (enrichment ratio); higher = better substrate or ligand; peptides without Tyr show the background
[5] = biological target: EPHB1 (UniProt P54762); experiment: as above
[6] = biological target: Jak2 (UniProt O60674); experiment: as above
[7] = system: c-Src; experiment: as above
[8] = biological target: FGFR1 (UniProt P11362); experiment: as above
[9] = system: c-Abl (mouse); experiment: as above
[10] = biological target: Hck (UniProt P08631); experiment: as above
[11] = system: AncSZ; experiment: as above
[12] = biological target: EPHB2 (UniProt P29323); experiment: as above
[13] = biological target: FGFR3 (UniProt P22607); experiment: as above
[14] = system: Fer (mouse); experiment: as above
[15] = biological target: Fyn (UniProt P06241); experiment: as above
[16] = biological target: Fes (UniProt P07332); experiment: as above
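For SH2 binding enrichment of the phosphorylated peptide, bacterial display in this document: peptide library displayed on the E. coli surface as eCPX fusions, selected cells deep-sequenced, score is each peptide's frequency after selection divided by its frequency in the input.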
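For phosphorylation enrichment, bacterial display in this document: 11-residue human phosphosite peptides and single-mutation variants displayed on the E. coli surface, counted by deep sequencing, each peptide's frequency after selection divided by its frequency in the unselected input library; frequency after pTyr selection over input frequency; kinase dosed for 20-30% of maximal phosphorylation in three min.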

Chain of Fes (P07332 whole entry, looked up, the tested form may be a part): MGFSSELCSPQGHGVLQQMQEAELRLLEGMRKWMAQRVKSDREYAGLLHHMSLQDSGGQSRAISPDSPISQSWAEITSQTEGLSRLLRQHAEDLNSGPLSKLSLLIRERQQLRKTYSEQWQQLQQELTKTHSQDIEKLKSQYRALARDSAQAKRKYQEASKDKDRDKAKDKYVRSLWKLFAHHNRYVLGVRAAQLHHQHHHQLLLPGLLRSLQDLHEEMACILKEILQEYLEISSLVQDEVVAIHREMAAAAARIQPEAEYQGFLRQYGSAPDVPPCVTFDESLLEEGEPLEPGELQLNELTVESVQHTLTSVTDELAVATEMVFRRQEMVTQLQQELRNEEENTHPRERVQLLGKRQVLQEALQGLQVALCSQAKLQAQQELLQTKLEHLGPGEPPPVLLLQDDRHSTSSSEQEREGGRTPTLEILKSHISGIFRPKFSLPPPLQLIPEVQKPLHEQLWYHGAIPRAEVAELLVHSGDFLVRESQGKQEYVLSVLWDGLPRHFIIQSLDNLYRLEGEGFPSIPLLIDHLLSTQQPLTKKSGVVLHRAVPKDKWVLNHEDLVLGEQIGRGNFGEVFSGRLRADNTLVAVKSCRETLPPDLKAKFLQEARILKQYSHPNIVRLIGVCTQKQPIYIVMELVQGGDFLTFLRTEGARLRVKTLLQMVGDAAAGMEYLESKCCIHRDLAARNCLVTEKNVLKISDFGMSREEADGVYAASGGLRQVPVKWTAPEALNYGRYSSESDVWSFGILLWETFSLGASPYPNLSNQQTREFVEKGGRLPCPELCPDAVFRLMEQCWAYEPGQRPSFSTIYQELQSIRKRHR
Chain of FGFR3 (P22607 whole entry, looked up): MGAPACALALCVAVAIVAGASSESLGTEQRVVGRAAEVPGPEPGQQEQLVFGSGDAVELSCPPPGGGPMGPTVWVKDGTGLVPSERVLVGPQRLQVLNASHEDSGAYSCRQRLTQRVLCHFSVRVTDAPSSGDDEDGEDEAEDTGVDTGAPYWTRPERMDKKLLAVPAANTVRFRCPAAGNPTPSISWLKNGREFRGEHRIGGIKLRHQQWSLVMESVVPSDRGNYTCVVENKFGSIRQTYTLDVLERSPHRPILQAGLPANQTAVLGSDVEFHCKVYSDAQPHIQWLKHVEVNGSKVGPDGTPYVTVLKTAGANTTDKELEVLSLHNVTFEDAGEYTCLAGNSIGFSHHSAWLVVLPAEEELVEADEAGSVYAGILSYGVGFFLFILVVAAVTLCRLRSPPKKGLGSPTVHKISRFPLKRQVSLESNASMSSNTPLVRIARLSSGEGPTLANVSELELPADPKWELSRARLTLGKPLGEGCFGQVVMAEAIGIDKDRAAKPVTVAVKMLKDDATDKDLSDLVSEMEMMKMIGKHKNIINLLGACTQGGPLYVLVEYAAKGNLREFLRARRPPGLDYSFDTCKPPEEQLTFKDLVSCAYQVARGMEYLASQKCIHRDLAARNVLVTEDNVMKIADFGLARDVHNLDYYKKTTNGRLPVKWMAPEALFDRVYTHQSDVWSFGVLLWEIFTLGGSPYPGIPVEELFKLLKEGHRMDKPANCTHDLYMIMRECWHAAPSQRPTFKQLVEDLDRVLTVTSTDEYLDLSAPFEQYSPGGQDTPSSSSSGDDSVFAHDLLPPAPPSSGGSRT
Chain of EPHB1 (P54762 whole entry, looked up): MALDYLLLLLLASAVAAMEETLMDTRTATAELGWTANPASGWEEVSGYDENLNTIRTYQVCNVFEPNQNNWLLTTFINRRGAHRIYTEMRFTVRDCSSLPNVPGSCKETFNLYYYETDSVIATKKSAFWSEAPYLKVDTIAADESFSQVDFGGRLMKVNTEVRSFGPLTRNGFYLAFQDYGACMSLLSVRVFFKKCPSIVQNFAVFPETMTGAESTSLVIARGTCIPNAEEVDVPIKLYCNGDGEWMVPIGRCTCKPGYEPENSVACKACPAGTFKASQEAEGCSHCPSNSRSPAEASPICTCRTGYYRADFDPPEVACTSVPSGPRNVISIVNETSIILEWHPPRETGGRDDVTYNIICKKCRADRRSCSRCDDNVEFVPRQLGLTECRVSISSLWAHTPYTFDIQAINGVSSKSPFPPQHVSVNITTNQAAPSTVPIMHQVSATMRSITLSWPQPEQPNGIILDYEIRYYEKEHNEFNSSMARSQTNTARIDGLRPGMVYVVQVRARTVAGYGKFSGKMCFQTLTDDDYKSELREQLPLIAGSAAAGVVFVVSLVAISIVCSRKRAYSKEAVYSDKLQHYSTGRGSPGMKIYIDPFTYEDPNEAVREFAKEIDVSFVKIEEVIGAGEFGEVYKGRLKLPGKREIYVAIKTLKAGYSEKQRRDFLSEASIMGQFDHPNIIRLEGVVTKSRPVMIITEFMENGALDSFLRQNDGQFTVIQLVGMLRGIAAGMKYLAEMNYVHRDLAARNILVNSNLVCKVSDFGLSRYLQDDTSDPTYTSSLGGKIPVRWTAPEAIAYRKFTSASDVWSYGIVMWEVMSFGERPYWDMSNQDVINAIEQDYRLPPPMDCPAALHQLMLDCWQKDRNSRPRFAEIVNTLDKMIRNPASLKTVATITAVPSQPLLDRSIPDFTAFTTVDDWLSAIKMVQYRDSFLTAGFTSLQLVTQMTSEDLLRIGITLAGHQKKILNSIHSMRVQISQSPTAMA
Chain of EPHB2 (P29323 whole entry, looked up): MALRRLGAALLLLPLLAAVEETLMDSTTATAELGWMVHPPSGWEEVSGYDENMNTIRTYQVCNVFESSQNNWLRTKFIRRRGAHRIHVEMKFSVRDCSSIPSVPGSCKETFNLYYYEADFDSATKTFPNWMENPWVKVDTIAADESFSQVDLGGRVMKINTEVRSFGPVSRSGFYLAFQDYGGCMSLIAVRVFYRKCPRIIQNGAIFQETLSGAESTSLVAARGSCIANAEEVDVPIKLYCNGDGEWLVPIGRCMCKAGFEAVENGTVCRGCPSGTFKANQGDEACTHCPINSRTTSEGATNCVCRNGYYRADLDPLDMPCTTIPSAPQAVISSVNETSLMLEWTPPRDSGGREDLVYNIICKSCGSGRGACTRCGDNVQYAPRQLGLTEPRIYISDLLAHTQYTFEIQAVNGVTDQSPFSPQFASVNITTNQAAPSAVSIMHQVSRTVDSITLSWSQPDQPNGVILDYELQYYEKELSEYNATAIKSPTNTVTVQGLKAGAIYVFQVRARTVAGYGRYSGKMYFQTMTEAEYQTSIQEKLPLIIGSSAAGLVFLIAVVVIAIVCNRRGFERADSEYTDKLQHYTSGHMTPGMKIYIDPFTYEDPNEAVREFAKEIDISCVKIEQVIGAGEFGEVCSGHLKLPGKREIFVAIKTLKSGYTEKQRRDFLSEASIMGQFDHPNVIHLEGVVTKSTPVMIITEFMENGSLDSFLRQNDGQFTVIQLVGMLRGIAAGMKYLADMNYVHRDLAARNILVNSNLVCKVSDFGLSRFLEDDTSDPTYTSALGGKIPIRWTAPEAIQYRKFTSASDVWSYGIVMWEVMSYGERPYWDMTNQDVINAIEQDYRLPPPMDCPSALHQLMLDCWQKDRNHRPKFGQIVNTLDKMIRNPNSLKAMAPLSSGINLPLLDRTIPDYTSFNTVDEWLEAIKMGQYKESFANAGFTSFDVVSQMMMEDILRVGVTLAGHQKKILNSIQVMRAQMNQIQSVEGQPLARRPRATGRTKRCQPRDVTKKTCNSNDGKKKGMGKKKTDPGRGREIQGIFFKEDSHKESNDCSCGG
Chain of FGFR1 (P11362 whole entry, looked up): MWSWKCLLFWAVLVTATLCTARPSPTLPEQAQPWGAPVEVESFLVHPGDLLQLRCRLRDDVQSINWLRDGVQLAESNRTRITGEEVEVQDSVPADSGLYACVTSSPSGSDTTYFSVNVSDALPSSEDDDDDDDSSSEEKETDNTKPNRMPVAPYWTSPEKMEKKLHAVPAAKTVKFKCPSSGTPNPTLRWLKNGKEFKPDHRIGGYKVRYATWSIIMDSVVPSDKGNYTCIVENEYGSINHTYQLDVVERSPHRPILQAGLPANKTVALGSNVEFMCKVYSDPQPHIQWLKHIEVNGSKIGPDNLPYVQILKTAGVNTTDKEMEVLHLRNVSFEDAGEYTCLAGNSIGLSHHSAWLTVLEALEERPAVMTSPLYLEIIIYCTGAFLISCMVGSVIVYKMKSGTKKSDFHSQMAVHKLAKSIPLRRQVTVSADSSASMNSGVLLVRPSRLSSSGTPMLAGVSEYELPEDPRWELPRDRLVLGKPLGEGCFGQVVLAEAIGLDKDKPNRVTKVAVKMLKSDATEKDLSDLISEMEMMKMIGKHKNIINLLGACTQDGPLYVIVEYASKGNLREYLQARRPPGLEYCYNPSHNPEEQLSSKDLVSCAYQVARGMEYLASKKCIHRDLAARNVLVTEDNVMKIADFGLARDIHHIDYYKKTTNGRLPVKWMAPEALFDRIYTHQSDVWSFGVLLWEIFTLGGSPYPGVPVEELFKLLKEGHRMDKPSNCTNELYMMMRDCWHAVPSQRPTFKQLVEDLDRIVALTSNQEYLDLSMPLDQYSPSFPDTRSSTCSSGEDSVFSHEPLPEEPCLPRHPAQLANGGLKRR
Chain of Hck (P08631 whole entry, looked up): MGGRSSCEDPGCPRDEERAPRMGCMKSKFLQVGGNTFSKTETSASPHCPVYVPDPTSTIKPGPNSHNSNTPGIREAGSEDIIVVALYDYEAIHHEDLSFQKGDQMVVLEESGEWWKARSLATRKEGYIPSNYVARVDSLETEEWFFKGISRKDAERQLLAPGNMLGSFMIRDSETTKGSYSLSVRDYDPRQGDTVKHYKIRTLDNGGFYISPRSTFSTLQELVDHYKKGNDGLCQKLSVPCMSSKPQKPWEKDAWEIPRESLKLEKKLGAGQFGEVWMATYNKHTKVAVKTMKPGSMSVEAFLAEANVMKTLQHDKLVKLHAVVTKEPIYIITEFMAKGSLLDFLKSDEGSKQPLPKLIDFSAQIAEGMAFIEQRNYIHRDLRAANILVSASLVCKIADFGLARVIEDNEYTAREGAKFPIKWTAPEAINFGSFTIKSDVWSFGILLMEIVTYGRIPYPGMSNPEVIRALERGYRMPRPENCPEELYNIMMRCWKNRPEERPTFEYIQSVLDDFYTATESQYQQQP

Sequence | SH2 binding enrichment [1] | SH2 binding enrichment [2] | SH2 binding enrichment [3] | phosphorylation enrichment [4] | phosphorylation enrichment [5] | phosphorylation enrichment [6] | phosphorylation enrichment [7] | phosphorylation enrichment [8] | phosphorylation enrichment [9] | phosphorylation enrichment [10] | phosphorylation enrichment [11] | phosphorylation enrichment [12] | phosphorylation enrichment [13] | phosphorylation enrichment [14] | phosphorylation enrichment [15] | phosphorylation enrichment [16]
HLVLNYGVCVC [JAK2_Y613] | 0.795 | 0.52 | 0.796 | 1.44 | 1.61 | 1.99 | 0.779 | 0.91 | 1.49 | 0.985 | 2.33 | 1.27 | 1.8 | 0.99 | 1.1 | 2.31
EWLRRHLENGK [HLA-A_Y195_Y195H] | 0.839 | 0.6 | 0.823 | 0.34 | 0.39 | 0.824 | 0.331 | 0.429 | 0.57 | 0.409 | 0.578 | 0.481 | 0.552 | 0.34 | 0.302 | 0.811
TFGVVYKARNK [CDK2_Y19_YF] | 0.671 | 0.495 | 0.801 | 0.321 | 0.439 | 0.805 | 0.346 | 0.587 | 0.565 | 0.39 | 0.928 | 0.518 | 0.694 | 0.481 | 0.422 | 0.917
AAVDNYCRHNY [HLA-DRB1_Y107_T106N] | 0.72 | 0.631 | 0.765 | 0.46 | 0.519 | 0.612 | 0.376 | 0.521 | 0.502 | 0.461 | 0.621 | 0.669 | 0.649 | 0.427 | 0.388 | 0.808
MGRVKYGAFIN [GLB1_Y485_N484K_YF] | 1.59 | 1.23 | 1.62 | 0.443 | 0.368 | 0.528 | 0.458 | 0.402 | 0.532 | 0.439 | 0.566 | 0.376 | 0.453 | 0.348 | 0.382 | 0.701
RFLERYIFNPE [HLA-DPB1_Y57_R61P_YF] | 0.835 | 0.794 | 3.06 | 0.521 | 0.892 | 1.39 | 0.804 | 0.46 | 1 | 0.51 | 1.27 | 0.666 | 0.624 | 0.627 | 0.557 | 1.25
LEAVSYSSPYA [RNLS_Y190_R193P] | 1.84 | 2.86 | 0.826 | 0.627 | 0.818 | 1.51 | 1.12 | 0.697 | 2.02 | 1.07 | 1.81 | 0.936 | 0.987 | 0.714 | 0.864 | 1.03
